Where “and” joins values, the source holds several entries; their conditions need not be identical. Equal entries are not always repeated.

The labels stand for the following.
B1: Neurotensin receptor type 1, P20789 (parent)
chain: MHLNSSVPQGTPGEPDAQPFSGPQSEMEATFLALSLSNGSGNTSESDTAGPNSDLDVNTDIYSKVLVTAIYLALFVVGTVGNSVTAFTLARKKSLQSLQSTVHYHLGSLALSDLLILLLAMPVELYNFIWVHHPWAFGDAGCRGYYFLRDACTYATALNVASLSVERYLAICHPFKAKTLMSRSRTKKFISAIWLASALLAIPMLFTMGLQNRSGDGTHPGGLVCTPIVDTATVKVVIQVNTFMSFLFPMLVISILNTVIANKLTVMVHQAAEQGRVCTVGTHNGLEHSTFNMTIEPGRVQALRHGVLVLRAVVIAFVVCWLPYHVRRLMFCYISDEQWTTFLFDFYHYFYMLTNALFYVSSAINPILYNLVSANFRQVFLSTLACLCPGWRHRRKKRPTFSRKPNSMSSNHAFSTSATRETLY

In one data set the parent is B1. The following applies: Rattus norvegicus; pH 7.4; Heat treatment; Activity; Tris-HCl 50 mM; structure 4BUO; whole UniProt chain shown.
Turning to F358A A86L H103A I260A, the Tm turned out to be 49 °C.

A86L I260A F342A: the Tm worked out at 47 °C.

With F358A A86L H103A, the Tm amounted to 48 °C.

Turning to A86L F358A, the Tm came to 48 °C.

As for F358A, the “change of melting temperature, mutant - wild type (higher = more stable)” value (shortened to “change of melting temperature, mutant”) was found to be 7 °C.

For F358A H103A I260A F342A, the Tm was 50 °C.

For A86L, the Tm was 37 °C and 39 °C.

On to F358A A86L H103A I260A F342A, for which the Tm worked out at 50 °C.

For A86L I260A F342A F358A, the Tm turned out to be 50 °C.

As for F358A A86L H103A F342A, the Tm was found to be 50 °C.

Turning to F358A A86L I260A, the Tm is 49 °C.

H103A: the Tm was 34 °C and 36 °C.

The same data set, now with this note: Rattus norvegicus; pH 7.4; Thermal; Activity; Tris-HCl 50 mM; structure 4BUO; whole UniProt chain shown.
A86L F358A: the “change of melting temperature, mutant” value was 11 °C and 10 °C.

Consider F358A, for which the “change of melting temperature, mutant” value was 3 °C and 8 °C.

Regarding A86L, the Tm was found to be 33 °C and the “change of melting temperature, mutant” value was found to be 8 °C.

Values taken from FireProtDB (doi:10.1016/j.jmb.2009.04.068).
